In a protein production outcome set (Wang et al. 2014):

Assay: label from the status in PepcDB records

| Sequence | protein production |
| --- | --- |
| MEAVVLPWQIFGVRELPVERGVTMKGPRLFRAPGHVPTGLKCHPDQEHMIYPLGCTVLIQAINTKEQNFLQGHGNNVSCLAISRSGEYIASGQVTFMGFKADIILWDYKNRELLARLSLHKGKIEALAFSPNDLYLVSLGGPDDGSVVVWSIAKRDAICGSPAAGLNVGNATNVIFSRCRDEMFMTAGNGTIRVWELDLPNRKIWPTECQTGQLKRIVMSIGVDDDDSFFYLGTTTGDILKMNPRTKLLTDVGPAKDKFSLGVSAIRCLKMGGLLVGSGAGLLVFCKSPGYKPIKKIQLQGGITSITLRGEGHQFLVGTEESHIYRVSFTDFKETLIATCHFDAVKDIVFPFGTAELFATCAKKDIRVWHTSSNRELLRITVPNMTCHGIDFMRDGKSIISAWNDGKIRAFAPETGRLMYVINNAHRIGVTAIATTSDCKRVISGGGEGEVRVWQIGCQTQKLEEALKEHKSSVSCIRVKRNNEECVTASTDGTCIIWDLVRLRRNQMILANTLFQCVCYHPEEFQIITSGTDRKIAYWEVFDGTVIRELEGSLSGSINGMDITQEGVHFVTGGNDHLVKVWDYNEGEVTHVGVGHSGNITRIRISPGNQYIVSVSADGAILRWKYPYTS | failed |
| MEAVVVEREAKGMKEIAIQEKDLTLQWRGNTGKLVKVRLKNTRAMEMWYNKQITEENIQEITTLNIIKNGKSLALEVYPEKSIYVKPNLGRINVPVFFIKTPINRGVFEEIFGETLKA | not failed |
| MECRECTNRNKLDFEFTMAFQPIVNLETQTIFAHEALVRGLNNESAQAIFQHINDSNRYLFDQSCRTTAIRLAAELHIPCFLSINFLPNAVYEPERCIRTTLEAAETYGFPIEQIIFEITESEQITDLVHLRKIVEYYRARGFKTAIDDFGAGYAGLNLLSEIQTDLIKLDMALIRGIDQDKVRQAIVKGVLQVAGELSSLVIAEGIETQAELTTLQGLGINLFQGFYFAKPTFQSLAQIPSDRFVNVA | failed |
| MEDDVTTTERLPAPPLDTASKRVGFISLGCPKALVDSERILTQLRAEGYEVAPSYEGADAVIVNTCGFITPAVEESLSAIGEALDATGKVIVTGCLGERPEKIMERHPKVAAITGSEAVDDVMGHVRELLPIDQGAFTGLLPVAAPGMRAGVETPQRENTRHGDVFAPSVKLTPRHYAYVKVAEGCNHTCAFCIIPKLRGLQVSRDAGAVLYEAYRLIAGGTKELMIIAQDTSAYGVDLRYRESEFQGEQVRAHLTDLAVKLGEMGAWVRMHYVYPYPHVDRVVELMAQGKVLPYLDIPLQHASPKILKLMRRPGAGKQLDTIRRWREICPELVIRSTFIVGFPGETEEDFQELLQFLEDARLDRVGAFPYSDIEEADANALPGAVPEEVKQERLARFMEVAQRISTEKLSEKVGRVMDVIIDEFNDDEDDQPGTRLIGRTKGDAPGIDGQVYLYAGDFAGLVKIGDIVRARIEDSDEYDLFGEVIEKPEWKPNVPQLGHFGKH | failed |
| MEDKTLGLLLDVVGELFSDEISIAVSNTKEYIYYRPSKRIDLKISAGDPIKEGTIAHKAMVTNQKTSEFMNRDVFGIPYHGMAVPFSNNGKLEGCVTAIYPALTDGKSVVTLKTTDGWIPVPFSKVMYLEAKDKKTYVNAEELTGTHKYSLQEFEYLLPKDSFIRCHRSFIVNVNHIKAIYPDTHSTFLLSMDNGERVPVSQSYASYFRKLLGF | not failed |
| MEDLLPTLPSLDHRDALPNALASPVLPAGQSDAQLVRTWLDTKYAAGLGIRASTRAQYALEAHRLLWYAHALGRPLASWQVADANGYLAFLADPPAHAVGDGRVRQDSPAWRPLRGPLSEASRRQTATIVGGLFEWLVGVEALRVNPFQAVPRARSARGPGSQRRFLEAEQLAAVFDAVEARPAPTLWAQLHKARDRLLLALLFHTGLRASEVTALTWPDFERQRGRHGDFWTVRIREAKGGSDQLVPCDNVMAELARFRQLVGLSPEPRATDTMAVVPAMAGGRQRLAPLTDTLALQRRLSRPVRTRQGLYTIVRQVFEAAAVRLEASGYAEGAANLRAASTHWLRHSHATHLLRAGVPVTDVQRTLRHRDINTTRRYTHEALEDVARSIGGKLPAVLEHHHHHH | failed |
| MEDLVTAPTPLDKRWLTEAVRLREEHAGPLEDQEANRHARQLGGDLATRIETRALFLAERDDMTGALRHWKQGARLALLALLLMAVLSGTGLGLAALGDGQRPVNVFWALGSLLGLNLLMLLGWGMGFALSGEHGAGLGRLWLWLSERFARDAKAAHLAPALLVLLQRQRLNRWLLGLLVHGLWLLAMLTALGMLLVLLATRRYGFVWETTLLAADPFIHLTQALGALPSLLGFAVPDEAMIRASGDSLPALDVARQAWASWLLGVVLVYGLLPRLLLAGLCLWRWRQGRERLTLDLGLPGYAQLREALMPRSERIGVQDAAPQALPQFAAGQLESGSSGALLVGLELDDQRPWPPALPKSVTDAGVLDSRESRNRLLEQLSRFPPARLAIACDPRRSPDRGSLALLAELARNAGATRIWLLQAAPGQPLDAERLGDWHEALDRLGLQHADTSPLTWLEHGHD | failed |
| MEDWWFSWLSRTNLEPSLIHEYGLSFSQNELEHEDISYFDHEFLQSMGISIAKHRLEILKLARRDRKNSPPLTSRSISRVVTAIKKTRKCLSDHVRAWIRREEESASSRALVLVPKKTSNGIGKWRGGFLKRNKRSVMPSNGNGGLEKQERLLLTNGTPCRIDSFSSPMVFDYSFKDEKLYAQDTYFEDIKWDSMFQNLKPT | failed |
| MEEERRDDYKFLRIQDAFKALHLHVNLIGVIVELGFSNGSDCSCTLKIVDPWYSGSGLPVKFVARTIRDLPRVESIGDIILLSRVKIVLINRKITALCNETTSSSFALFNGKHSVDSIPYQSSPKFLMREQDKNFLSNLREWMITYKFEDGS | not failed |
| MEEITDGVNNMNLATDSQKKNRIQVSNTKKPLFFYVNLAKRYMQQYNDVELSALGMAIATVVTVTEILKNNGFAVEKKIMTSTVDIKDDARGRPVQKAKIEITLVKSEKFDELMAAANEEKEDAEAQVQN | not failed |
| MEEKRLSAKKGLPPGTLVYTGKYREDFEIEVMNYSIEEFREFKTTDVESVLPFRDSSTPTWINITGIHRTDVVQRVGEFFGIHPLVLEDILNVHQRPKVEFFENYVFIVLKMFTYDKNLHELESEQVSLILTKNCVLMFQEKIGDVFDPVRERIRYNRGIIRKKRADYLLYSLIDALVDDYFVLLEKIDDEIDVLEEEVLERPEKETVQRTHQLKRNLVELRKTIWPLREVLSSLYRDVPPLIEKETVPYFRDVYDHTIQIADTVETFRDIVSGLLDVYLSSVSNKTNEVMKVLTIIATIFMPLTFIAGIYGMNFEYMPELRWKWGYPVVLAVMGVIAVIMVVYFKKKKWL | not failed |
| MEEKVEELIDIYKQQIYSLCYKLAKTKEDAEDIFQETWIKVFSSRHQLSYVENYKKWITTICVRTFYDFYSKKKRWKDRVLDLFHKEDGGEIEFADDVNISEEFIQKVEAEMIREVIQLLNEKYKTVLVLYYYEQYSYKEMSEILNIPIGTVKYRLNYAKKQMREHLEGFVHEGR | failed |
| MEENKPVFSIITVCYCARDIIAKTAHSVLSQTYPNIEYIVVDGASPDNTAEVVRSLSSDIRLISEPDKGLYDAMNKGLRMALGDYVWFLNAGDLLPSDDLVEAIANGIKSSPMGLPDVLYGDTMLIDATGKEKGLRRLRPPFELQWRSFADGMLVCHQAFIAKRLIAPPYNMKYRFSADFDWCIRILQAARNIVNTEMILVHSLDDRGGITYKNHKASLKERFLIMKHYYGSRKSIMKHLSFFFRRKR | failed |
| MEEPRRLGGRYELGPVLGRGGMAEVYHAHDTRLGRQVAVKTLRADLARDPSFQARFRREAQSAASLNHPAIVAVYDTGEDYIDNVSIPYIVMEYVDGSTLRELLHSGRKLLPERTLEMTIGILQALEYSHRAGIVHRDIKPANVMLTRNGQVKVMDFGIARAMGDSGMTMTQTAAVIGTAQYLSPEQAKGEQVDARSDLYSTGCLLYELLTVRPPFVGDSPVAVAYQHVREEPQAPSVFDPEITPEMDAIVLKALVKDPDYRYQSADEMRVDIEACLDGQPVGATAAMGAMAAGGYGAYPDDQPTTALRSDGGGGATTMLPPMNPDDGGYGYDERPDRRRQQPRKKNTSTIFLVLAGVLVLVGAILIGKYAFSGDGGPGNDKVPVPAFIGLSKADAQQQADNIDLVLTFKQQECEDQPKGNICAQDPKQGTDVDKESTVNLVVSTGAPKVAVPNVIDKNIDEAKKQLEDKGFEVETKQTESSQDEGTILSQNPDPGKELEKGSTVTLEVAKAEEKATVPDVVGRTCDEAKAQVESGGDLTAVCTDQPTNDPNQVGKVISTTPQSSTQVDPGSKVTIVVGKAVEKTKVPEVRGKTLAEARQILQQSGFTNVQVAQGSPGDDNAKVFASNPQPGSEVDDPAATPITLMTVPGDGGNGNGGNGNGGAIAGLPGFGD | failed |
